# Patent US20110239327A1, “Nematicidal Effects of Cysteine Proteinases and Methods of Use Thereof to Treat Nematode Infestation” (priority 2007, published 2011)
# B1: papain (protein, UniProt P00784 134-345, looked up)
# Papain: IPEYVDWRQKGAVTPVKNQGSCGSCWAFSAVVTIEGIIKIRTGNLNEYSEQELLDCDRRSYGCNGGYPWSALQLVAQYGIHYRNTYPYEGVQRYCRSREKGPYAAKTDGVRQVQPYNEGALLYSIANQPVSVVLEAAGKDFQLYRGGIFVGPCGNKVDHAVAAVGYGPNYILIKNSWGTGWGENGYIRIKRGTGNSYGVCGLYTSSFYPVKN
# notes: cysteine proteinase from Carica papaya, Merops C01.001, Sigma P3125
# Tested on: M. incognita J2
# Experiment: In planta bioassay, two soil applications: nematode infection of tomato roots
# Assay type: in vivo, M. incognita on tomato plants
# Conditions: two soil applications of enzyme (250 μM papain, 2.2 μM bromelain, 3.3 mM actinidin as printed), soil 16% organic matter, 11 days
# Description: Oxamyl is supplied as 10% liquid Vydate. 125 μl of a solution 1000 fold dilution of 10% formulation (kindly supplied by DK from NIU) was applied to 5 g of the soil mixture with 16% organic matter, to give a partial nematicidal effect. Soil mixtures were wetted with PBS pH 7.2, 16 hrs prior nematode application of 1000 or 2000 M. incognita J2. Infected soil mixtures were treated with water (control) or 250 μM of active papain in 16 mM of L-cysteine or a combination of Vydate and 250 μM of active papain in 16 mM of L-cysteine. After 48 hs tomato seedlings one month old were added to the treated soils. After 11 days the roots were washed free of soil and chopped to approximately 2 mm pieces. The root pieces of each tomato plant was placed in muslin bags and stained with acid-fuchsin. The stained roots were examined under microscope and all the nematodes present in the roots were counted. […] After 48 hours tomato seedlings one month old were added to the treated soils and after 11 days post infection nematode development inside root tissues was assessed as described above.
# The avermectins are macrocyclic lactones produced by the actinomycete Streptomyces avermitilis. […] After 48 hs tomato seedlings one month old were added to the treated soils and after 11 days post infection nematode development inside root tissues was assessed as described above. […]
molecule,measurement,value
B1,reduction of nematode infection of plants,89%
